Measured values reported in doi:10.1101/2020.04.21.053124.

Molecular target: MVI Spring bZip (1-914) (UniProt Q9UM54)
Assay: SEC

Substance: MVI Spring bZip (1-914) (from UniProt Q9UM54 1-914)
- stoichiometry N: 2
